In patent publication US20250263490A1 (VIB VZW, published 2025):
Numbering of substitutions follows the chain as printed. Each block holds one molecule with its values, some of them ahead of it.

Columns and labels:
[1] = target: recombinant human domain 1-3His6 of the cation-independent mannose-6-phosphate receptor (human) (UniProt P11717); assay: BLI at pH 7.4, bivalent model
[2] = target: recombinant human domain 1-3His6 of the cation-independent mannose-6-phosphate receptor (human) (UniProt P11717); assay: BLI exp 1, dissoc pH 5, bivalent model
[3] = target: recombinant human domain 1-3His6 of the cation-independent mannose-6-phosphate receptor (human) (UniProt P11717); assay: BLI exp 1, dissoc pH 6, bivalent model
[4] = target: recombinant human domain 1-3His6 of the cation-independent mannose-6-phosphate receptor (human) (UniProt P11717); assay: BLI exp 1, dissoc pH 7, bivalent model
[5] = target: recombinant human domain 1-3His6 of the cation-independent mannose-6-phosphate receptor (human) (UniProt P11717); assay: BLI exp 2, dissoc pH 5, bivalent model
[6] = target: recombinant human domain 1-3His6 of the cation-independent mannose-6-phosphate receptor (human) (UniProt P11717); assay: BLI exp 2, dissoc pH 6, bivalent model
[7] = target: recombinant human domain 1-3His6 of the cation-independent mannose-6-phosphate receptor (human) (UniProt P11717); assay: BLI exp 2, dissoc pH 7, bivalent model
[8] = target: recombinant human domain 1-3His6 of the cation-independent mannose-6-phosphate receptor (human) (UniProt P11717); assay: BLI exp 1, dissoc pH 7.4, bivalent model
[9] = target: recombinant human domain 1-3His6 of the cation-independent mannose-6-phosphate receptor (human) (UniProt P11717); assay: BLI exp 2, dissoc pH 7.4, bivalent model
[10] = target: human cation-independent mannose-6-phosphate receptor, native, on cells (human) (UniProt P11717); assay: flow cytometry on HepG2 cells, titration of the anti-CI-M6PR 2G11 antibody (Abcam ab2733) [lower graph]
[11] = target: human cation-independent mannose-6-phosphate receptor, native, on cells (human) (UniProt P11717); assay: flow cytometry on HEK293T cells (sheet: HEK293 cell), titration of the anti-CI-M6PR 2G11 antibody (Abcam ab2733) [lower graph]
[12] = target: T1, recombinant human domain 1-3His6 of the cation-independent mannose-6-phosphate receptor (human, UniProt P11717 41-467); assay: in-tandem competitive BLI, biotinylated hDom1-3His6 on SA sensors, purified VHH at 400 nM
T1 construct: Biotinylated (NHS-PEG4-biotin) for BLI; Glycosylated; also called hDom1-3His6; hCI-M6PRD1-D3
Experimental: (§1) FIGS. 50 & 51. In-tandem competitive BLI of purified anti-CI-M6PR VHHs. In-tandem competitive BLI was performed on an Octet Red96 (FortéBio) instrument in kinetics buffer (1×PBS, 1 mg/ml bovine serum albumin, 0.02% Tween-20 and 0.05% sodium azide). Human CI-M6PR domain₁₋₃His₆ (0.5 mg/mL in 50 mM MES, 150 mM NaCl, pH 6.5) was incubated for 30 minutes at room temperature with EZ-Link™ NHS-PEG4-Biotin (1 mg, Thermo Fischer A39259) and NaHCO₃ (100 mM). Biotinylated human domain₁₋₃His₆ was purified using a Zeba spin desalting Column™ (7K MWCO, 2 mL, Thermo Fischer 89890) and immobilized on Streptavidin SA biosensors (Sartorius) to a signal of 0.5 nm. […] Between assays, biosensors were regenerated by three times 10 s exposure to regeneration buffer (10 mM glycine pH 3). Data were double reference-subtracted and aligned in Octet Data Analysis software v9.0 (FortéBio). Greyscale curves represent double reference-subtracted data.

[13] = target: T1, recombinant human domain 1-3His6 of the …; assay: in-tandem competitive BLI, biotinylated hDom1-3His6 on SA sensors, purified VHH
[14] = target: T1, recombinant human domain 1-3His6 of the …; assay: in-tandem competitive BLI, 400 nM
Experimental: as §1
FIG. 55. […] In-tandem competitive BLI was performed as described in FIG. 50.

[15] = target: T1, recombinant human domain 1-3His6 of the …; assay: in-tandem competitive BLI, biotinylated hDom1-3His6 on SA sensors, periplasmic extract of E. coli (concentration not given)
Experimental: as §1, with “In-tandem competitive BLI of purified anti-CI-M6PR VHHs.” left out

[16] = target: T1, recombinant human domain 1-3His6 of the …; assay: BLI, global 1:1 fit, pH 7.4
Experimental: (§2) FIGS. 58 & 59. […] BLI was performed on an Octet Red96 (FortéBio) instrument in kinetics buffer (0.2 M Na₂HPO₄, 0.1 M Na⁺ citrate, 0.01% bovine serum albumin, 0.002% Tween-20). Biotinylated human domain₁₋₃His₆ was immobilized on Streptavidin SA biosensors (Sartorius) to a signal of 0.6 nm. […] Between assays, biosensors were regenerated by three times 10 s exposure to regeneration buffer (10 mM glycine pH 3). The degree of association and dissociation was measured in δ nm over time (s).
(§3) After loading, the tips were incubated with VHHs serially diluted in pH 7.4 kinetic buffer during the association phase and dissociation was performed at pH 7.4, pH 6.5, pH 6.0, pH 5.5 and pH 5.0. All biosensor tips were then regenerated before analysis of the subsequent VHH. Table 13 summarizes the kinetic parameters retrieved after processing and curve fitting of the BLI measurements. When both association and dissociation were performed at pH 7.4, a global fit was performed according to the 1:1 binding model of which the resulting affinity constants (KD), association (kₒₙ) and dissociation rate constants (koff) are shown. For measurements with association at pH 7.4 and dissociation at pH 6.5, 6.0, 5.5 and 5.0, the depicted dissociation rate constants are an average of the parameters determined by local curve fitting of the dissociation of 200, 100 and 50 nM VHH.

[17] = target: T1, recombinant human domain 1-3His6 of the …; assay: BLI, dissoc pH 5, mean of local fits
Experimental: as §2, §3

[18] = target: T1, recombinant human domain 1-3His6 of the …; assay: BLI, dissoc pH 6, mean of local fits
Experimental: as §2, §3

[19] = target: T1, recombinant human domain 1-3His6 of the …; assay: BLI, dissoc pH 5.5, mean of local fits
Experimental: as §2, §3

[20] = target: T1, recombinant human domain 1-3His6 of the …; assay: BLI, dissoc pH 6.5, mean of local fits
Experimental: as §2, §3

Kd [1]: 2760 nM
koff [1]: 0.000592 s⁻¹
kon [1]: 215 M⁻¹ s⁻¹
Kd [2]: 1510 nM
koff [2]: 0.000363 s⁻¹
kon [2]: 241 M⁻¹ s⁻¹
Kd [3]: 2350 nM
koff [3]: 0.000479 s⁻¹
kon [3]: 204 M⁻¹ s⁻¹
Kd [4]: 4430 nM
koff [4]: 0.000712 s⁻¹
kon [4]: 161 M⁻¹ s⁻¹
koff [5]: 0.000389 s⁻¹
kon [5]: 35900 M⁻¹ s⁻¹
koff [6]: 0.000534 s⁻¹
kon [6]: 42600 M⁻¹ s⁻¹
koff [7]: 0.00103 s⁻¹
kon [7]: 31100 M⁻¹ s⁻¹
Kd [8]: 2760 nM
koff [8]: 0.000592 s⁻¹
kon [8]: 215 M⁻¹ s⁻¹
Kd [9]: 13.1 nM
koff [9]: 0.000794 s⁻¹
kon [9]: 60700 M⁻¹ s⁻¹
EC50 (read off the curve) [10]: 0.6 nM
EC50 (read off the curve) [11]: 0.2 nM
Molecule: anti-CI-M6PR antibody (clone 2G11)

binding result [14]: binds
B4: humanized VHH8 variant VHH8 h5 (VHH)
VHH: DVQLVESGGGLVQAGGSLRLSCEASGRTFNTYNWGWFRQAPGKEREFVAAIRWSSSKTSYADSVKGRFTISRDNSKNTVYLQMNSLRPEDTAVYYCAASIVDFTTNPSHFGSWGQGTLVTVSS
notes: made in E. coli

binding result [15]: binds
B5: anti-CI-M6PR VHH 2H79 (VHH)
VHH: QVQLQESGGGQVQAGDSLGLSCAASGGAFSTYHMGWFRQAPGKQRELVAAITRGGSSSTKYVDSVKGRFTISRDNAKNTMYLQMNSLQPDDTAVYYCAASPQGKWNALVGGTPDYWGQGTQVTVSS

binding result [15]: binds
B8: anti-CI-M6PR VHH 2H74 (VHH)
VHH: QVQLQESGGGLVQAGGSLRLTCAPSGRTYSTYWMAWFRQAPGKEREIVARINWSDGSTFYTESVKGRFTISGDNAKNTVYLQMTNLKPEDTAVYYCLARTVVSLDDYWGQGTQVTVSS

Further lines, the molecule ahead of its results:

B1: anti-CI-M6PR VHH 1H21 (VHH)
VHH: QVQLQESGGGLVQAGGSLRLSCVASGRTFSTLHMGWFHQAPGKERELVAAITRSGDTYYADFVKGRFTISRDNAKNTVYLQMISLKPEDTAVYYCAATGPGGWARLRAHEYDYWGQGTQVTVSS
binding result [12]: binds

B2: 1H74 (VHH)
VHH: QVQLQESGGGLVQPGGSLRLACAASGFTLEDYSIGWFRQAPGKEREGVSCISSSDHSTYYADSVKGRFTISRDNAQNTVYLHMNSLKPEDTAVYYCAGRYSSLARIETNWHDYNYWGQGTQVTVSS
notes: also called anti-CI-M6PR VHH 1H74
binding result [13]: no binding (tested: 400 nM)

B3: humanized VHH8 variant VHH8 h4 (VHH)
VHH: B4 VHH with A14P
notes: made in E. coli
binding result [14]: binds

B6: anti-CI-M6PR VHH 1H52 (VHH)
VHH: QVQLQESGGGLVQPGGSLRLSCTASGFTWDSYVIGWFRQAPGKGREGVSCLDVDDGSIYYHDSAKGRFSISRDNAKNTVYLQMNSLKPEDTAVYYCAAVNRASMRFRRCLQVLRYDYWGQGTQVTVSS
notes: made in E. coli WK6, His-tag purified
Kd [16]: 31 nM
koff [16]: 0.032 s⁻¹
kon [16]: 1e+06 M⁻¹ s⁻¹
koff [17]: 0.2 s⁻¹
koff [18]: 0.03 s⁻¹
koff [19]: 0.051 s⁻¹
koff [20]: 0.067 s⁻¹

B7: anti-CI-M6PR VHH 1H37 (VHH)
VHH: B8 VHH with A14P
binding result [12]: binds
